Assay [1] has as its target T1, TR66 antibody (CD3ε specific antibody, clone TR66).
T1 construct: Whole antibody
Kind of assay: peptide ELISA, apparent KD against the parental peptide.

Assay [2] has as its target T1, TR66 antibody (CD3ε specific antibody, …). Kind of assay: apparent KD, peptide ELISA, biotinylated peptide on streptavidin plate, TR66 titrated, two-site saturation fit. (An ELISA detects its analyte on a solid surface through an enzyme-linked reagent.)

Positions of bridges follow the written chain, without caps; N, C: chain ends. No end group written: not given here. *: point of attachment. Biotin = O=C1N[C@H]2[C@H](CS[C@H]2CCCCC(=O)*)N1

In the case of ACTRPDDPQCGGGSK(Biotin) (disulfide 2-10 (inferred)) [aCD3-04-002 (ACTRPDDPQC-GGGS-K(Bio))], in assay [1], the “fold lower apparent KD than the parental peptide aCD3 C7C-4” value was roughly 5 fold. For the same molecule, the Kd in assay [2] came out at 0.078 µM.

Take ACTRPGDPYCGGGSK(Biotin) (disulfide 2-10 (inferred)) [aCD3-04-009 (ACTRPGDPYC-GGGS-K(Bio))]: the Kd in assay [2] stood at 0.167 µM.

Regarding ACTRPDDPECGGGSK(Biotin) (disulfide 2-10 (inferred), also called TR66 mimotope aCD3-04-013) [aCD3-04-013 (ACTRPDDPEC-GGGS-K(Bio))], the “fold lower apparent KD than the parental peptide aCD3 C7C-4” value in assay [1] is roughly 100 fold. In assay [2], the Kd was 0.004 µM.

B1: aCD3 C7C-4 (ACTRPGDPQC-GGGS-K(Bio)) (peptide)
peptide: ACTRPGDPQCGGGSK(Biotin)
modifications: disulfide 2-10 (inferred)
notes: On the microarrays the peptide was immobilized covalently through a reactive moiety, not through K(Bio); also called clone 4; parental peptide
B1: the Kd in assay [2] turned out to be 0.37 µM.

As for WCTRPGDPQCGGGSK(Biotin) (disulfide 2-10 (inferred)) [aCD3-04-006 (WCTRPGDPQC-GGGS-K(Bio))], in assay [2], the Kd was 0.226 µM.

Regarding ACTRPDDPWCGGGSK(Biotin) (disulfide 2-10 (inferred)) [aCD3-04-014 (ACTRPDDPWC-GGGS-K(Bio))], the Kd in assay [2] was 0.111 µM.

With ACTRPEDPQCGGGSK(Biotin) (disulfide 2-10 (inferred)) [aCD3-04-007 (ACTRPEDPQC-GGGS-K(Bio))], the Kd in assay [2] came out at 0.299 µM.

For the molecule ACTRPGDPACGGGSK(Biotin) (disulfide 2-10 (inferred)) [aCD3-04-008 (ACTRPGDPAC-GGGS-K(Bio))], the Kd in assay [2] was 0.164 µM.

These data come from US20190070248A1 (BIONTECH, published 2019).
